In patent publication US8507433B1, “Cardioprotective effects of GHRH agonists” (University of Miami, priority 2010, dated 2013):
Several values for one entry are separate records, joined by “and”; a condition that tells them apart may be missing. Equal values may be shown once. Marks after values point to notes of the source that are not given here.

Assays:
[1] = molecular target: rat GHRH receptor (GHRHR) in membrane fractions from ischemic rat heart (rat) (UniProt Q02644); assay: radioligand binding: in vitro ligand competition assay with radioiodinated JV-1-42 on ischemic rat heart membrane fractions
Sequence of UniProt Q02644 (Q02644 23-464): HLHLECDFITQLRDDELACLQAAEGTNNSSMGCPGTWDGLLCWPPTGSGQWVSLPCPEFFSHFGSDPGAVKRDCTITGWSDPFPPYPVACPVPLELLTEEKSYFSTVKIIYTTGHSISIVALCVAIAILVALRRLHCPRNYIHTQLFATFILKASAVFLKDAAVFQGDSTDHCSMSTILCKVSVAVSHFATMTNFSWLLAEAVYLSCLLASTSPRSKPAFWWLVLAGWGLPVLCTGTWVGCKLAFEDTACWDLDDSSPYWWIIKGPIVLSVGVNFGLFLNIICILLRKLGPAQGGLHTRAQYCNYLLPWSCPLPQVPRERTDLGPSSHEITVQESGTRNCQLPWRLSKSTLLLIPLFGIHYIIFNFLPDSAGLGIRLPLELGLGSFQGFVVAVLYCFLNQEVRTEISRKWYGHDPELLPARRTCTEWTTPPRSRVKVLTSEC

[2] = test system: female 6-month-old Fisher-344 rats, MI induced by coronary artery ligation; assay: Body weight and heart weight after MI, 4-week treatment; assay type: in vivo, rat; settings: mean±SEM; for Heart weight (HW) / body weight (BW) after MI: rats post-MI; for Heart weight (HW): after 4-week treatment; for body weight (BW) after MI: week 4, s.c. twice daily 4 weeks, GHRH-A 50 μg/kg or rrGH 0.5 mg/kg; for body weight (BW), baseline: rats, baseline before MI and treatment
Procedure: (§1) MI induced by coronary artery ligation was performed in female 6-month-old Fisher-344 rats as described previously (40). Animals were randomly assigned to receive placebo, GHRH-agonist (GHRH-A [JI-38], 50 μg/kg) or rat recombinant GH (rrGH, 0.5 mg/kg) starting 2 hours post-surgery. All treatment was given subcutaneously twice daily for 4 weeks. The Institutional Animal Care and Use committee of University of Miami approved all protocols and experimental procedures.
(§2) At the end of the study, rat hearts were harvested for further analysis. Hearts were weighted and the basal portion, free of fibrotic tissue, was flash-frozen in liquid nitrogen for total RNA isolation and protein analysis. Remaining tissue was fixed with 10% formalin for histology.

serum GH = assay: Rat serum GH (ELISA) after 4-week treatment; assay type: in vivo; settings: rats post-MI, blood 1-2 hours after last injection, vs. placebo
Procedure: as §1
(§3) At the end of the study, blood was drawn 1-2 hours after the last rrGH or GHRH-A injection and the serum was stored at −80° C. until the measurements were done. All the samples were assayed together and each sample was assayed in duplicate. Rat serum GH was measured using a rat GH Enzyme-Linked Immunosorbent Assay (ELISA) Kit (DSL-10-72100, DSL Webster, Tex.), following the manufacturer's recommendations. This test is an enzymatically amplified “one-step” sandwich-type enzyme immunoassay, where standards, controls and unknown samples are incubated in microtitration wells precoated with the anti-rat GH antibody. The standard curve of the assay was established with samples provided by the manufacturer. Rat serum IGF-I was measured using a rat IGF-I Radioimmunoassay Kit (DSL-2900, DSL Webster, Tex.), after extraction with acid ethanol, following the manufacturer's recommendations. […]

serum IGF-I = assay: Rat serum IGF-I (radioimmunoassay) after 4-week treatment; assay type: in vivo; settings: rats post-MI, blood 1-2 hours after last injection, vs. placebo
Procedure: as §1, §3

[3] = test system: female 6-month-old Fisher-344 rats, MI induced by coronary artery ligation; assay: Echocardiographic measurements post-MI; assay type: in vivo, rat; settings: echocardiography
Procedure: as §1
Echocardiographic measurements were obtained at baseline, 2 days, 1, 2 and 4 weeks. Echocardiographic assessments were performed in anesthetized rats (2% isoflurane inhalation) using a Vevo-770 echocardiogram (Visual Sonics Inc., Toronto, Ontario, Canada) equipped with a 17.5-MHz transducer. Cardiac dimensions: LV end diastolic (LVEDD), end systolic (LVESD) diameters and fractional shortening (FS) were recorded from M-mode images using averaged measurements from 3 to 5 consecutive cardiac cycles according to the American Society of Echocardiography (1). Ejection fraction (EF) was calculated from bi-dimensional long-axis parasternal views taken through the infarcted area. All images were analyzed using Vevo 770 3.0.0 software (Visual Sonics Inc., Toronto, Ontario, Canada).

[4] = test system: female 6-month-old Fisher-344 rats, MI induced by coronary artery ligation; assay: Hemodynamic measurements (LV pressure-volume catheterization) post-MI; assay type: in vivo, rat; parameters: SW (stroke work) / Ees (end-systolic elastance): unit not given here; settings: rats post-MI after 4-week treatment; for Heart rate: LV catheterization; for LVEDP / LVEDV: preload
Procedure: as §1
Rats were anesthetized by intramuscular injection of a mixture of ketamine (100 mg/kg), xylazine (20 mg/kg) and acepromazine (10 mg/kg). A 2-F micromanometer tipped catheter (SPR-838, Millar Instruments, Houston, Tex.) was inserted into the right carotid artery and advanced retrograde into the left ventricle. Measurements were calibrated by injecting a hypertonic saline (15%) bolus to determine extra-ventricular conductance; relative volume units were converted to actual volume using the cuvette calibration method (2). All analyses were performed using PVAN 3.0 software (Millar Instruments, Houston, Tex.).

[5] = test system: female 6-month-old Fisher-344 rats, MI induced by coronary artery ligation; assay: Histopathology: MI size, fibrosis, capillary density, myocyte width; assay type: in vivo, rat; settings: rats post-MI after 4-week treatment
Procedure: as §1, §2
Slides were prepared with H&E and Masson's trichrome stain to assess cardiac structure and the presence and extent of fibrosis and myocardial scar, respectively. The size of MI was determined using NIH Image version 1.30v for Windows to quantify the percentage area of fibrosis. An image-processing software (Imaging Processing Toolkit 5.0, Reindeer Graphics, Asheville, N.C.) and Adobe Photoshop CS2 (San Jose, Calif.) were used to assess the slides as previously described with minor modifications (3). The percentage of fibrosis was calculated by using the following formula: % fibrosis=fibrotic area/(fibrotic area+healthy area)
H&E stained sections of hearts from midventricular level were used to measure the myocyte width. At least 35-50 cardiomyocytes were counted and averaged at the level of the nuclei in non-infarcted remote myocardium.

GHRH-R mRNA = assay: Real-time PCR of mRNA for GHRH-R and β-actin in rat heart tissue; assay type: in vivo; settings: normalised to β-actin, Pfaffl method
Procedure: (§4) Total RNA from heart tissue was extracted using Trizol (Invitrogen, Carlsbad, Calif.). The quality of RNA isolated was tested using NanoDrop1000 (Thermo Fisher Scientific Inc., Wilmington, Del.). OD 260/280 ratio was in the range of 1.8 to 2.1 for all samples.
The expression of GHRHR was measured using real-time quantitative PCR as described previously by Havt et al (6).
We evaluated the mRNA expression of rat GHRH receptor (GHRH-R) and β-actin. The probes designed to evaluate the expression of GHRH-R and β-actin are 5′-/Cy5/ACCTCCGACTTTCTCAGTTCCTGTATGCCC/BHQ—2/-3′ and 5′-/6-FAM/ATCCTGCGTCTGGACCTGGCTGGC/BHQ—1/-3′, respectively. Gene specific primer sequences were the following: GHRH-R (sense) 5′-[…]-3′ and 5′-TGGTTTCCCTGGGCCTTGG-3′ (antisense) with a product size of 110 bp, β-actin: (sense) 5′-GGGTTACGCGCTCCCTCAT-3′ and 5′-[…]-3′ (antisense) with a product size of 133 bp.
All real-time PCR reactions were performed in the iCycler iQ™ Real-Time PCR Detection System (Bio-Rad, Hercules, Calif.). Thermal cycling conditions comprised an initial denaturation step at 95° C. for 3 min followed by 45 cycles at 95° C. for 30 sec and an annealing temperature at 60° C. for GHRH-R and β-actin for 1 min. As final steps, we included two cycles: one at 95° C. and the other at 60° C., both for 1 min. […]

[6] = test system: Bcl2 and Bax gene expression; assay: Real-time PCR of pro-apoptotic and anti-apoptotic genes (Bax, Bcl2) in rat heart; assay type: in vivo; settings: rt-qPCR
Procedure: as §4
The monitoring of pro-apoptotic and anti-apoptotic genes was also assessed by real time PCR. First-strand cDNA was synthesized from 1 μg total RNA using the High-Capacity cDNA Reverse-Transcription Kit (Applied Biosystems, Inc., Foster City, Calif., USA), and ribosomal 18S RNA served as the housekeeping gene. We used TaqMan probes labeled with 6-carboxyfluorescein (FAM) for real-time RT-PCR reactions, according to manufacturer's protocol (Applied Biosystems, Inc., Foster City, Calif., USA). Data were analyzed by the threshold cycle (Ct) relative quantification method.

[7] = test system: Ki67 positive cells and c-kit+ cardiac precursor cells in rat heart; assay: Immunostaining for Ki67 and c-kit positive cells in heart sections; assay type: in vivo; settings: remote zone, relative to placebo and GHRH-A
Procedure: as §1
Paraffin sections were deparaffinized and rehydrated by immersion in xylene and a graded series of ethanols. Antigen retrieval was performed by a heat-induced method with citrate buffer (Dako, Carpinteria, Calif.). After blocking with 10% normal donkey serum, sections were incubated with a primary antibody (table S3), at 37° C. for 1 hour, followed by application of secondary antibody. Omission of the primary antibodies on parallel sections was used as negative control. Nuclei were counterstained with DAPI (Invitrogen, Carlsbad, Calif.). The total numbers of positively-stained cells were quantified per slide to calculate the number of cells per unit volume (mm^3) on each sample. Morphometric analysis was performed by using Adobe Photoshop CS3 (San Jose, Calif.)

Molecule	Heart weight (HW) [2] [mg]	body weight (BW) after MI [2] [g]	body weight (BW), baseline [2] [g]	serum GH (serum GH)	serum IGF-I (serum IGF-I)	EF ([3]; 4 weeks (W4) post-MI)	FS ([3]; 4 weeks (W4) post-MI) [%]	LVEDD ([3]; 4 weeks (W4) post-MI) [mm]	EF ([3]; baseline (BSL)) [%]	FS ([3]; baseline (BSL)) [%]	LVEDD ([3]; baseline (BSL)) [mm]	LVESD ([3]; baseline (BSL)) [mm]	Heart rate [4] [bpm]	LVESP ([4]; afterload) [mmHg]	Ees (end-systolic elastance) ([4]; contractility)	LVEDP [4] [mmHg]	LVEDV [4] [µL]	capillary density [5]	Ratio (GHRH-R gene expression level in treatment group compared to placebo group) (GHRH-R mRNA)	other results
GHRH antagonist JV-1-42 (radioiodinated derivative) (peptide)	–	–	–	–	–	–	–	–	–	–	–	–	–	–	–	–	–	–	–	Bmax (fmol/mg protein) [1]: 51.3; Kd [1]: 0.86 nM
[Dat^1, Gln^8, Orn^12,21, Abu^15, Nle^27, Asp^28, Agm^29]hGH-RH(1-29)NH2 [GHRH-A]	695 ± 26	225 ± 3	231 ± 5	did not increase	did not increase	47±4% and 47.2 ± 4.0 ¶ %	28.7±3.3	7.7 ± 0.2	85.7 ± 1.6	53.1 ± 1.0	6.3 ± 0.2	2.9 ± 0.1	270 ± 17	83 ± 1.1	0.19 ± 0.02	8 ± 0.5	421 ± 26	0.006±0.001 /mm^2	1.91	Ea (arterial elastance) ([4]; afterload): 0.5 ± 0.004 mmHg/μl; expression of anti-apoptotic gene (Bcl2) [6]: upregulated; expression of pro-apoptotic gene (Bax) [6]: trended to be downregulated; ratio between Bax and Bcl2 expression ([6]; in comparison to placebo or rrGH): significantly reduced
rrGH: Rat recombinant GH supplied by National Hormone and Pituitary Program (NHPP) (protein, UniProt P01244 27-216, looked up) Somatotropin: FPAMPLSSLFANAVLRAQHLHQLAADTYKEFERAYIPEGQRYSIQNAQAAFCFSETIPAPTGKEEAQQRTDMELLRFSLLLIQSWLGPVQFLSRIFTNSLMFGTSDRVYEKLKDLEEGIQALMQELEDGSPRIGQILKQTYDKFDANMRSDDALLKNYGLLSCFKKDLHKAETYLRVMKCRRFAESSCAF	850 ± 38	256 ± 3	217 ± 4	679 ± 196 ng/mL	1052 ± 91 ng/mL	44±2% and 44.3 ± 2.3%	20.3±1.3	8.6 ± 0.1	89.2 ± 0.4	58.2 ± 0.7	5.9 ± 0.1	2.3 ± 0.1	247 ± 6.8	91 ± 2.3	0.33 ± 0.12	10 ± 1.8	351 ± 38	0.02±0.002 /mm^2	2.10 *	LVESD ([3]; 4 weeks (W4) post-MI): 6.8 ± 0.2 mm; PRSW ([4]; contractility): 48 ± 5.0 mmHg; dP/dtmax ([4]; contractility): 6243 ± 313 mmHg/s; dP/dtmax_EDV ([4]; contractility): 17.5 ± 4.3 mmHg/s/l; dP/dtmin ([4]; lusitropy): 4028 ± 334 mmHg/s; CO (cardiac output) ([4]; pressure-volume derived): 22.5 ± 3.4 mL/min; EF ([4]; pressure-volume derived): 26.2 ± 1.7%; SV (stroke volume) ([4]; pressure-volume derived): 98 ± 13 µL; SW (stroke work) ([4]; pressure-volume derived): 6920 ± 790; Ea/Ees ([4]; ratio between arterial elastance and end-systolic elastance): 4.4 ± 0.6; TAU (G) ([4]; relaxation time constant, Glantz method): 19.9 ± 0.4 ms; MI size (infarct size) ([5]; Masson's trichrome): 45±2%; percentage of ventricular fibrosis [5]: 27±1%; expression of Ki67 positive cells [7]: higher
